Results from paper PMC10511499.

B1: full-length yeast Pac1 with C-terminal FLAG-SNAPf [S. cerevisiae] / yeast Ndl1 coiled-coil domain (Ndl1^CC, residues 2-132) [S. cerevisiae] (parent)
chain 1: MTNWQQQLPLTDTQKNELDKSVLRYLNWNYKQTVRHEHAQDYESVRHAIVTLSGFLLQESVDRQEFISNNDTSNESMVDIDELLLPKKWNSIVRLQKKIIELEQNTETLVSQIKDLNTQVSELAQFKPTTSNGTSAHNVLKWIPRNLPSCLINVESSVTSVKLHPNLPIVFVATDHGKLYAFDLFNYTIPLASLQSHTKAITSMDVLFTNYTNSSKKNYLVIVTASKDLQIHVFKWVSEECKFQQIRSLLGHEHIVSAVKIWQKNNDVHIASCSRDQTVKIWDFHNGWSLKTFQPHSQWVRSIDVLGDYIISGSHDTTLRLTHWPSGNGLSVGTGHEFPIEKVKFIHFIEDSPEIRFRTPSTDRYKNWGMQYCVSASRDRTIKIWEIPLPTLMAHRAPIPNPTDSNFRCVLTLKGHLSWVRDISIRGQYLFSCADDKSVRCWDLNTGQCLHVWEKLHTGFVNCLDLDVDFDSNVTPRQMMVTGGLDCKSNVFMR
chain 2: VPNLDLETAIQIISSLETQLSELEGATKEYENDLEQVISKLKSDLLESQQQNKCNKKQITDLEIQVDELENENIQLRNKIETLQLESDRRLERNVLLEHELLDTKEALQKLRVSKEEATSGETRRNTRSLP
B2: LIS1, wild type, as used in mass photometry (construct not told) [human] / human Ndel1 coiled-coil domain (Ndel1^CC, residues 1-195) [human] (parent)
chain 1: MVLSQRQRDELNRAIADYLRSNGYEEAYSVFKKEAELDVNEELDKKYAGLLEKKWTSVIRLQKKVMELESKLNEAKEEFTSGGPLGQKRDPKEWIPRPPEKYALSGHRSPVTRVIFHPVFSVMVSASEDATIKVWDYETGDFERTLKGHTDSVQDISFDHSGKLLASCSADMTIKLWDFQGFECIRTMHGHDHNVSSVAIMPNGDHIVSASRDKTIKMWEVQTGYCVKTFTGHREWVRMVRPNQDGTLIASCSNDQTVRVWVVATKECKAELREHEHVVECISWAPESSYSSISEATGSETKKSGKPGPFLLSGSRDKTIKMWDVSTGMCLMTLVGHDNWVRGVLFHSGGKFILSCADDKTLRVWDYKNKRCMKTLNAHEHFVTSLDFHKTAPYVVTGSVDQTVKVWECR
chain 2: MDGEDIPDFSSLKEETAYWKELSLKYKQSFQEARDELVEFQEGSRELEAELEAQLVQAEQRNRDLQADNQRLKYEVEALKEKLEHQYAQSYKQVSVLEDDLSQTRAIKEQLHKYVRELEQANDDLERAKRATIVSLEDFEQRLNQAIERNAFLESELDEKESLLVSVQRLKDEARDLRQELAVRERQQEVTRKSA

Variants of: B1
Assay: mass photometry
Conditions: with yeast Ndl1 coiled-coil domain (Ndl1^CC, residues 2-132) [S. cerevisiae]; Proteins mixed at a 1:1 molar ratio

screen value	Variant
0%	chain 1 R275A R301A R378A W419A K437A

Variants of: B2
Assay: mass photometry
Conditions: with human Ndel1 coiled-coil domain (Ndel1^CC, residues 1-195) [human]; Proteins mixed at a 1:1 molar ratio

screen value	Variant
5%	chain 1 R316A
0%	chain 1 W340A
